Test [1] concerns the target antigen of the ScFv (Example 1). Put plainly: spotted films, Alexa647-labelled pure antigen, fluorescence; reference ScFv alone.
The target of test [2] is antigen of scFv1 (Example 6). Description: microarray of spotted films, 10 nM biotinylated antigen, Alexa-647-labeled streptavidin, spot intensity; reference scFv1 control.

B1: His6ScFvRep4CT (scFv)
chain: MGSSGHHHHHHMEVQLLESGGGLVQPGGSLRLSCAASGFTFSSYEMNWVRQAPGKGLEWVSGISGSGGFTYYADSVKGRFTISRDNSKNTLYLQMNSLRAEDTAMYYCAREGYQDAFDIWGQGTLVTVSSGGGGSGGGGSGGGGSQSVLTQPPSASGTPGQRVTISCTGSSSNIGAGYDVHWYQQLPGTAPKLLIYSNNQRPSGVPDRFSGSKSGTSASLAISGLRSEDEADYYCAAWDDSLSGPPCVFGGGTKLTVLGEQKLISEEDLSGSAAAGNSGQGGYGGLGQGGYGQGAGSSAAAAAAAAAAAAGGQGGQGQGGYGQGSGGSAAAAAAAAAAAAAAAGRGQGGYGQGSGGNAAAAAAAAAAAAAAAGQGGQGGYGRQSQGAGSAAAAAAAAAAAAAAGSGQGGYGGQGQGGYGQSSASASAAASAASTVANSVSRLSSPSAVSRVSSAVSSLVSNGQVNMAALPNIISNISSSVSASAPGASGCEVIVQALLEVITALVQIVSSSSVGYINPSAVNQITNVVANAMAQVMG
Regarding B1, in test [1], the fold more antigen bound compared to ScFv alone came to 10 times.

B2: His6-scFv1-NTCT (scFv)
chain: MGSSGHHHHHHMEVQLLESGGGLVQPGGSLRLSCAASGFTFSSYEMNWVRQAPGKGLEWVSGISGSGGFTYYADSVKGRFTISRDNSKNTLYLQMNSLRAEDTAMYYCAREGYQDAFDIWGQGTLVTVSSGGGGSGGGGSGGGGSQSVLTQPPSASGTPGQRVTISCTGSSSNIGAGYDVHWYQQLPGTAPKLLIYSNNQRPSGVPDRFSGSKSGTSASLAISGLRSEDEADYYCAAWDDSLSGPPWVFGGGTKLTVLGEQKLISEEDLSGSAAAGNSSHTTPWTNPGLAENFMNSFMQGLSSMPGFTASQLDDMSTIAQSMVQSIQSLAAQGRTSPNKLQALNMAFASSMAEIAASEEGGGSLSTKTSSIASAMSNAFLQTTGVVNQPFINEITQLVSMFAQAGMNDVSAGNSGIQGYGQSSASASAAASAASTVANSVSRLSSPSAVSRVSSAVSSLVSNGQVNMAALPNIISNISSSVSASAPGASGCEVIVQALLEVITALVQIVSSSSVGYINPSAVNQITNVVANAMAQVMG
In test [2], B2 registered a fold increase of antigen recognition compared to the scFv1 control alone of 25 times.

B3: His6Rep4CTScFv (scFv)
chain: MHHHHHHGQGGYGGLGQGGYGQGAGSSAAAAAAAAAAAAGGQGGQGQGGYGQGSGGSAAAAAAAAAAAAAAAGRGQGGYGQGSGGNAAAAAAAAAAAAAAAGQGGQGGYGRQSQGAGSAAAAAAAAAAAAAAGSGQGGYGGQGQGGYGQSSASASAAASAASTVANSVSRLSSPSAVSRVSSAVSSLVSNGQVNMAALPNIISNISSSVSASAPGASGCEVIVQALLEVITALVQIVSSSSVGYINPSAVNQITNVVANAMAQVMGGNSEVQLLESGGGLVQPGGSLRLSCAASGFTFSSYEMNWVRQAPGKGLEWVSGISGSGGFTYYADSVKGRFTISRDNSKNTLYLQMNSLRAEDTAMYYCAREGYQDAFDIWGQGTLVTVSSGGGGSGGGGSGGGGSQSVLTQPPSASGTPGQRVTISCTGSSSNIGAGYDVHWYQQLPGTAPKLLIYSNNQRPSGVPDRFSGSKSGTSASLAISGLRSEDEADYYCAAWDDSLSGPPCVFGGGTKLTVLGEQKLISEEDLSGSAAA
For the molecule B3, the fold more antigen bound compared to ScFv alone in test [1] is more than 10 times.

The values are drawn from patent publication US20150119554A1.
